According to patent US20070178095A1 (Eli Lilly, published 2007):
Substitutions are numbered along the chain they refer to. Values belong to the binder of their own block, whether it stands above or below them.

How the values were obtained:
[1] = molecular target: T1, peptide immunogen ANYCSGESEFVFLQKYPHTHLVHQA (human); test: ELISA, peptide coated at 2 ug/ml, Fab 0.016-10 ug/ml
T1 construct: For immunization it was conjugated to KLH and a helper T-cell peptide; also called immunogenic peptide; immunogenic polypeptide
T1 peptide: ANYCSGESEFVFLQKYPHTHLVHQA
Experimental: Each well of two 96-well plates is coated with 70 μl of the peptide immunogen used to generate the Fabs (2 μg/ml in carbonate buffer, pH 9.6). The plates are incubated in a dry oven at 37° C. overnight with the lids removed. The wells are aspirated and washed twice with washing buffer (20 mM Tris (hydroxymethyl) aminomethane, pH 7.4, 0.15 M NaCl, 0.1% Tween-20). The plates are blocked with 200 μl blocking buffer per well (5% BioRad blotting grade milk in the above washing buffer) for 2.5 hours.
The Fabs are diluted into blocking buffer at 10 μg/ml, 2 μg/ml, 0.4 μg/ml, 0.08 μg/ml, and 0.016 μg/ml. A rat anti-myostatin monoclonal antibody (R&D Systems, catalog #MAB788, clone #84214) and a polyclonal anti-myostatin antibody (R&D Systems, catalog #AF788), are used as controls at the above concentrations and are also diluted in blocking buffer. Fifty microliters of each antibody solution is added to the peptide-coated wells in duplicate. The plates are incubated for 1.5 hours at room temperature. The wells are then washed 3 times with washing buffer.
Peroxidase-conjugated secondary antibody (50 μl goat anti-mouse kappa HRP (Southern Biotech) for Fabs, 50 μl mouse anti-rat (Jackson ImmunoResearch) for monoclonal, 50 μl rabbit anti-goat (Jackson ImmunoResearch) for polyclonal, all diluted 1:2000 in blocking buffer is added to each well and incubated for 1 hour at room temperature. The wells are then washed 3 times with washing buffer. Fifty microliters of chromogenic substrate (i.e., OPD substrate) is added to each well and allowed to develop at room temperature for 10 minutes. The reaction is stopped by adding 100 μl 1N HCl to each well. The absorbance of the wells is read at 490 nm.

[2] = molecular target: T2, recombinant mouse myostatin (R&D systems, Cat. #788-G8/CF, carrier-free) (mouse, UniProt O08689 268-376); test: ELISA, growth factor coated at 10 ug/ml, Fab at 10 ug/ml, mean of duplicate wells
T2 construct: mature; also called GDF-8; GDF-8/myostatin
T2 sequence (looked up): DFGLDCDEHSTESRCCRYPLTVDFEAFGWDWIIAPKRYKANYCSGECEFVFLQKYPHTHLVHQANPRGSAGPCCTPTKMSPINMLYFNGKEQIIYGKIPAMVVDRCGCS
Experimental: (§1) Peroxidase-conjugated secondary antibody (50 μl goat anti-mouse kappa HRP (Southern Biotech) for the Fabs, 50 μl rabbit anti-goat (Jackson ImmunoResearch) for the polyclonal, diluted 1:2000 in blocking buffer) is added to each well and incubated for 1 hour at room temperature. The wells are then washed 3 times with washing buffer. Fifty microliters of chromogenic substrate (i.e., OPD substrate) is added to each well and allowed to develop at room temperature for 10 minutes. The reaction is stopped by adding 100 μl 1N HCl to each well. The absorbance of the wells is read at 490 nm.

[3] = molecular target: TGF-alpha (R&D Systems 239-A) (UniProt P01135 40-89); test: as above
Experimental: as §1

[4] = molecular target: T3, recombinant human GDF-11 (Peprotech, Inc., Cat. # 120-11, carrier-free) (human, UniProt O95390 299-407); test: as above
T3 construct: also called BMP-11
T3 sequence (looked up): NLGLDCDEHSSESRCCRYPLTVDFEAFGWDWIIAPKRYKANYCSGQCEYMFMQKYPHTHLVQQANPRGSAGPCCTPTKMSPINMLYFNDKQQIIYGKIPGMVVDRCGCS
Experimental: as §1

[5] = molecular target: T4, TGF-beta2 (Peprotech, Inc. 100-35) (UniProt P61812 303-414); test: as above
T4 construct: also called TGF-b2
T4 sequence (looked up): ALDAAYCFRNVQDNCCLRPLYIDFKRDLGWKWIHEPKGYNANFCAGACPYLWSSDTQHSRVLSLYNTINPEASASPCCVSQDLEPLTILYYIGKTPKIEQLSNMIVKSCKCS
Experimental: as §1

[6] = molecular target: T5, IGF-1 (R&D Systems 291-G1) (UniProt P05019 49-118); test: as above
T5 construct: Negative control antigen
Experimental: as §1

[7] = molecular target: BMP-2 (R&D Systems 355-BEC/CF) (UniProt P12643 283-396); test: as above
Experimental: as §1

[8] = molecular target: T6, BMP-5 (R&D Systems 615-BM) (UniProt P22003 317-454, limits assumed); test: as above
T6 sequence (looked up): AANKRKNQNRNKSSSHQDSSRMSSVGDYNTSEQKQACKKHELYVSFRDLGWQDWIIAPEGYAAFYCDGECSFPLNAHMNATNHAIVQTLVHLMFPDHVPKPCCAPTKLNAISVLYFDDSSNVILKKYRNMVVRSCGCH
Experimental: as §1

[9] = molecular target: T7, BMP-7 (R&D Systems 354-BP) (UniProt P18075 293-431); test: as above
T7 sequence (looked up): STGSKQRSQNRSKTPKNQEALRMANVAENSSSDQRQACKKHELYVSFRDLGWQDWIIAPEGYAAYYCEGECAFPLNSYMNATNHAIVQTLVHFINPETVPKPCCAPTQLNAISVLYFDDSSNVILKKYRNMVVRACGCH
Experimental: as §1

[10] = molecular target: T8, Activin A (R&D Systems 338-AC) (UniProt P08476 311-426); test: as above
T8 sequence (looked up): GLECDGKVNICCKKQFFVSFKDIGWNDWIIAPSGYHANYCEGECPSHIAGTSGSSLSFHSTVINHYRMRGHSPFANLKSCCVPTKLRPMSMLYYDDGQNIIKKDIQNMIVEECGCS
Experimental: as §1

[11] = molecular target: T9, TGF-beta1 (Peprotech, Inc. 100-21R) (UniProt P01137 279-390); test: as above
T9 construct: also called TGF-b1
Experimental: as §1

[12] = molecular target: T10, Activin B (R&D Systems 659-AB) (UniProt P09529 293-407); test: as above
T10 sequence (looked up): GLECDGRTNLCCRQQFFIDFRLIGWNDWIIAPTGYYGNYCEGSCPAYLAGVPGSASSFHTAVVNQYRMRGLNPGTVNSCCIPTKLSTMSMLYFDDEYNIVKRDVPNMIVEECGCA
Experimental: as §1

[13] = molecular target: T11, BMP-6 (R&D Systems 507-BP) (UniProt P22004 382-513, limits assumed); test: as above
T11 sequence (looked up): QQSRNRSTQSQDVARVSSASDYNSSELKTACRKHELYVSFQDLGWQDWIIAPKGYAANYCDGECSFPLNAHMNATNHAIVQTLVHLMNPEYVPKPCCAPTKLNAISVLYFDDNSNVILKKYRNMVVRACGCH
Experimental: as §1

TGF-alpha (R&D Systems 239-A), sequence (P01135 40-89 limits assumed): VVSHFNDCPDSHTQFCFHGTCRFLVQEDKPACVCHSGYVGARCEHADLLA
BMP-2 (R&D Systems 355-BEC/CF), sequence (P12643 283-396 limits assumed): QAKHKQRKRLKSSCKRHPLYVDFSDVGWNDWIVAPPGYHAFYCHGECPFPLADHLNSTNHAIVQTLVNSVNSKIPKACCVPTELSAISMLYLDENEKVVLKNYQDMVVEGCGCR
T5 sequence (P05019 49-118 limits assumed): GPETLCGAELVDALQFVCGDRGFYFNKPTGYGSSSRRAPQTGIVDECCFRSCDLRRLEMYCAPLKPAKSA
T9 sequence (P01137 279-390 limits assumed): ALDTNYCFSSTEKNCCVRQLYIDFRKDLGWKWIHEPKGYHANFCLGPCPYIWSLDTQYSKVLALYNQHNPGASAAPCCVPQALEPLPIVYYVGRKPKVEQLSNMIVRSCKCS

- binding result [1]: binds
B1: Fab 8 (Fab, V domains shown)
VH: QVTLKESGPGILQSSQTLSLTCSLSGFSLRTSGMSVSWIRQSSGKGLEWLAHIYWDDDKRYNPSLRNRLTISKDTLRNQVFLKITSVGTADTATYYCARRAITTVIGGGTMDYWGQGTSVTVSS
VL: QIVLTQSPAIMSASPGEKVTMTCSASSSVSYMHWYQQKSGTSPKRWIYDTSKLASGVPARFSGSGSGTSYSLTISSMEAEDAATYYCQQWSSNPLTFGAGTKLELKR
notes: Mouse Fab, kappa light chain; also called anti-myostatin Fab 8

- absorbance at 490 nm [2]: 0.358 OD 490 nm
- absorbance at 490 nm [3]: 0.0315 OD 490 nm
- absorbance at 490 nm [4]: 0.04 OD 490 nm
- absorbance at 490 nm [5]: 0.0345 OD 490 nm
- absorbance at 490 nm [6]: 0.034 OD 490 nm
- absorbance at 490 nm [7]: 0.0335 OD 490 nm
- absorbance at 490 nm [8]: 0.0345 OD 490 nm
- absorbance at 490 nm [9]: 0.031 OD 490 nm
- absorbance at 490 nm [10]: 0.0325 OD 490 nm
- absorbance at 490 nm [11]: 0.032 OD 490 nm
- absorbance at 490 nm [12]: 0.031 OD 490 nm
- absorbance at 490 nm [13]: 0.035 OD 490 nm
B2: Fab 7 (Fab, V domains shown)
VH: QVTLKSGPGILQSSQTLTLTCSLSGFSLTTSGMIVSWIRQSSGRGLEWLAHIYWDDDKRYNPSLRNRLTISKDTLRNQVFLWISSVGTADTATYYCARRAITTVIGGGTMDYWGQGTSVTVSS
VL: B1 VL with V29I, S39P, S91Y
notes: Mouse Fab, kappa light chain; also called anti-myostatin Fab 7

- binding result [1]: binds
B3: Fab 14 (Fab, V domains shown)
VH: B1 VH
VL: B1 VL with S39P, S91Y
notes: Mouse Fab, kappa light chain; also called anti-myostatin Fab 14

- binding result [1]: binds
- absorbance at 490 nm [2]: 0.202 OD 490 nm
- absorbance at 490 nm [3]: 0.033 OD 490 nm
- absorbance at 490 nm [4]: 0.034 OD 490 nm
- absorbance at 490 nm [5]: 0.034 OD 490 nm
- absorbance at 490 nm [6]: 0.035 OD 490 nm
- absorbance at 490 nm [7]: 0.032 OD 490 nm
- absorbance at 490 nm [8]: 0.033 OD 490 nm
- absorbance at 490 nm [9]: 0.032 OD 490 nm
- absorbance at 490 nm [10]: 0.033 OD 490 nm
- absorbance at 490 nm [11]: 0.0325 OD 490 nm
- absorbance at 490 nm [12]: 0.033 OD 490 nm
- absorbance at 490 nm [13]: 0.0325 OD 490 nm
B4: Fab 5 (Fab, V domains shown)
VH: B1 VH with L24F, R30S, N67S, L76S, G88D, A101G, I106L
VL: B1 VL with I2V, P15L, S30H
notes: Mouse Fab, kappa light chain; also called anti-myostatin Fab 5

- binding result [1]: binds
B5: Fab 12 (Fab, V domains shown)
VH: B1 VH with I11M
VL: B1 VL with I2V, S30Y, K38R, T41A, S91T, S92Y
notes: Mouse Fab, kappa light chain; also called anti-myostatin Fab 12

- binding result [1]: binds
B6: Fab 15 (Fab, V domains shown)
VH: B1 VH
VL: B1 VL with K18E, V29I, S30N, S91N, A99G
notes: Mouse Fab, kappa light chain; also called anti-myostatin Fab 15

- binding result [1]: binds
- absorbance at 490 nm [2]: 0.419 OD 490 nm
- absorbance at 490 nm [3]: 0.033 OD 490 nm
- absorbance at 490 nm [4]: 0.0705 OD 490 nm
- absorbance at 490 nm [5]: 0.034 OD 490 nm
- absorbance at 490 nm [6]: 0.034 OD 490 nm
- absorbance at 490 nm [7]: 0.0345 OD 490 nm
- absorbance at 490 nm [8]: 0.034 OD 490 nm
- absorbance at 490 nm [9]: 0.033 OD 490 nm
- absorbance at 490 nm [10]: 0.033 OD 490 nm
- absorbance at 490 nm [11]: 0.034 OD 490 nm
- absorbance at 490 nm [12]: 0.032 OD 490 nm
- absorbance at 490 nm [13]: 0.0335 OD 490 nm
B7: Fab 3 (Fab, V domains shown)
VH: B1 VH
VL: B1 VL with V29I, S39P, S91Y
notes: Mouse Fab from a Biosite Omniclonal library, kappa light chain (detected or captured with goat anti-mouse kappa); also called anti-myostatin Fab 3

- binding result [1]: binds
B8: Fab 11 (Fab, V domains shown)
VH: B1 VH
VL: B1 VL with V29I, S39P, S91N
notes: Mouse Fab, kappa light chain; also called anti-myostatin Fab 11

- binding result [1]: binds
B9: Fab 10 (Fab, V domains shown)
VH: B1 VH with S14P, K59E
VL: B1 VL with I2V, V29I, S39P, S91Y
notes: Mouse Fab, kappa light chain; also called anti-myostatin Fab 10
